B1: AASRYNLTI (Seq. ID No. 5) (peptide)
peptide: AASRYNLTI
notes: Only the start position in MUC1 is printed; The end of the range follows from the length of 9 residues
B2: GVPGWGIAL (Seq. ID No. 3) (peptide)
peptide: GVPGWGIAL
notes: as for B1
B3: SFFFLSFHI (Seq. ID No. 8) (peptide)
peptide: SFFFLSFHI
notes: as for B1
B4: GQDVTSVPV (Seq. ID No. 11) (peptide)
peptide: GQDVTSVPV
notes: as for B1
B5: LQRDISEMF (Seq. ID No. 6) (peptide)
peptide: LQRDISEMF
notes: as for B1
B6: STGVSFFFL (Seq. ID No. 10) (peptide)
peptide: STGVSFFFL
notes: as for B1
B7: FLGLSNIKF (Seq. ID No. 1) (peptide)
peptide: FLGLSNIKF
notes: as for B1
B8: FSAQSGAGV (Seq. ID No. 12) (peptide)
peptide: FSAQSGAGV
notes: as for B1
B9: TLAFREGTI (Seq. ID No. 9) (peptide)
peptide: TLAFREGTI
notes: as for B1
B10: SVPVTRPAL (Seq. ID No. 2) (peptide)
peptide: SVPVTRPAL
notes: as for B1
B11: HHSDTPTTL (Seq. ID No. 7) (peptide)
peptide: HHSDTPTTL
notes: as for B1
B12: AFREGTINV (Seq. ID No. 4) (peptide)
peptide: AFREGTINV
notes: as for B1

Each binder was assayed against T1, HLA-A*02:06 molecule (HLA-A*02:06 gene product) (human) (assay: flow cytometry, RA2.6 cells (RMAS + HLA-A*02:06), peptide dilution series, BB7.2 staining).
T1 construct: whole, on cells; MHC class I on RA2.6 cells (mouse RMAS transfected with HLA-A*02:06); The light chain is not described
Experimental: Thereafter, the cells were cultured at 35° C. for 4 hours. […] A fluorescently labeled monoclonal antibody BB7.2, which specifically recognizes a peptide-binding HLA-A*02:06 molecule, was added thereto, incubation was carried out on ice for 20 minutes, and thus the cells were stained.
(§1) Thereafter, the amount of fluorescence per cell was measured using a flow cytometer, and a dissociation constant Kd value was calculated using a method that was reported in a paper (Udaka et al., Immunogenetics, 51, 816-828, 2000) by the inventors of the present invention.

| Data of binding experiment (log Kd) | Binder |
| --- | --- |
| -3.82 log Kd | B1 |
| -5.76 log Kd | B2 |
| -3.98 log Kd | B3 |
| -6.35 log Kd | B4 |
| -4.26 log Kd | B5 |
| -5.21 log Kd | B6 |
| -4.39 log Kd | B7 |
| -5.66 log Kd | B8 |
| -3.09 log Kd | B9 |
| -5.63 log Kd | B10 |

The binders below were run against T2, HLA-A*24:02 molecule (HLA-A*24:02 gene product) (human) (assay: flow cytometry, acid-stripped C1R-A24 cells + purified b2m, peptide dilution series, 17A12 staining).
T2 construct: MHC class I on acid-stripped C1R-A24 cells; The endogenous peptide and b2m were removed, then purified b2m was added
Experimental: First, C1R-A24 cells were exposed to acidic conditions at a pH of 3.3 for 30 seconds, and thus an endogenous peptide that originally binds to the HLA-A*24:02 molecule, and a light chain β2m, which is associated with HLA class-I molecules in common, were dissociated and removed. After neutralization, a purified β2m was added to C1R-A24 cells, and the obtained product was added to a series of dilutions of the peptide and incubated on ice for 4 hours. Staining was carried out using a fluorescently labeled monoclonal antibody 17A12, which recognizes association (MHC-pep) of the three members, that is, a HLA-A*24:02 molecule, a peptide, and β2m, which had reassociated during the incubation.
Thereafter, the MHC-pep count per C1R-A24 cell (proportional to the intensity of fluorescence of the above-mentioned fluorescent antibody) was quantitatively measured using a fluorescence-activated cell sorter FACScan (Becton-Dickinson). A binding-dissociation constant Kd value between the HLA-A*24:02 molecule and the peptide was calculated from the average intensity of fluorescence per cell using a method that was reported in a paper (Udaka et al., Immunogenetics, 51, 816-828, 2000) by the inventors of the present invention.

| Data of binding experiment (log Kd) | Binder |
| --- | --- |
| -6.15 log Kd | B1 |
| -5.93 log Kd | B2 |
| -7.07 log Kd | B3 |
| -6.65 log Kd | B5 |
| -5.87 log Kd | B11 |
| -5.83 log Kd | B12 |
| -5.17 log Kd | B6 |
| -7.07 log Kd | B7 |
| -5.97 log Kd | B9 |
| -7.24 log Kd | B10 |

The binders below were run against T3, HLA-A*02:01 molecule (HLA-A*02:01 gene product) (human) (assay: flow cytometry, T2 cells + purified b2m, peptide dilution series, BB7.2 staining).
T3 construct: MHC class I on T2 cells with added purified b2m
Experimental: as §1

| Data of binding experiment (log Kd) | Binder |
| --- | --- |
| -4.81 log Kd | B1 |
| -4.55 log Kd | B2 |
| -6.44 log Kd | B4 |
| -5.12 log Kd | B6 |
| -5.39 log Kd | B7 |
| -4.74 log Kd | B8 |
| -3.9 log Kd | B10 |

Reference: patent US20200181195A1 (NEC, published 2020)
